Reference: article PMC12137362, “OsAPSE modulates non-covalent interactions between arabinogalactan protein O-glycans and pectin in rice cell walls” (Frontiers in Plant Science, 2025)

Tested on: O=[N+]([O-])c1ccc(O[C@H]2O[C@H](CO)[C@H](O)[C@H](O)[C@H]2O)cc1
Test: cells, lysate or membranes
Conditions: Tris-HCl pH 8, 25 °C, unpurified cell-free expression reaction, final substrate 0.5-50 mM

For “GH27_OsAPSE (GH27 domain of OsAPSE) (Oryza sativa Japonica Group)”, the Km was 0.67 mM.
